Data taken from patent US20190315842A1 (DUKE UNIVERSITY, published 2019).
Positions count from the first letter of the chain named. Blank lines part the entries; values can stand above or below the binder they belong to. Where no end group is shown, it is not given here. The star is where a group is joined. Biotin = O=C1N[C@H]2[C@H](CS[C@H]2CCCCC(=O)*)N1

What was measured:
[1] = molecular target: T1, reduced form of Complement Factor H (CFH), treated with TCEP (human, UniProt P08603 19-1231, disulfides reduced with 10 mM TCEP); assay: immunoblot, SDS-PAGE under reducing conditions, antibody at 0.5 µg/ml, anti-human IgG-HRP, chemiluminescence; lane numbers as in Table 10
T1 construct: also called reduced CFH; reduced form of CFH

[2] = molecular target: T2, Complement Factor H (CFH) protein, full-length (human, UniProt P08603 19-1231); assay: immunoblot, SDS-PAGE under non-reducing conditions, antibody at 0.5 µg/ml, anti-human IgG-HRP, chemiluminescence; lane numbers as in Table 10
T2 construct: also called full-length CFH; native CFH

[3] = molecular target: T3, 15-mer peptide GPPPPIDNGDITSFP (SEQ ID NO: 114) (human); assay: assay and antigen not given; Example 10, epitope mapping on the 15-mer peptide
T3 construct: Immobilized for SPR; also called parent peptide
T3 peptide: GPPPPIDNGDITSFP

[4] = molecular target: ribonucleoprotein (RNP); assay: AtheNA Multi-Lyte ANA, Ab at 25 ug/ml
[5] = molecular target: T4, Sm (sphingomyelin); assay: AtheNA Multi-Lyte ANA, Ab at 25 ug/ml
T4 construct: in an ANA panel of nuclear antigens Sm is usually the Smith ribonucleoprotein antigen; Kept, but see recheck

[6] = molecular target: systemic lupus erythematosus autoantigen SSA; assay: AtheNA Multi-Lyte ANA, Ab at 25 ug/ml
[7] = molecular target: T5, sclerosis autoantigen (Scl-70) (UniProt P11387 2-765, limits assumed); assay: AtheNA Multi-Lyte ANA, Ab at 25 ug/ml
T5 sequence (looked up): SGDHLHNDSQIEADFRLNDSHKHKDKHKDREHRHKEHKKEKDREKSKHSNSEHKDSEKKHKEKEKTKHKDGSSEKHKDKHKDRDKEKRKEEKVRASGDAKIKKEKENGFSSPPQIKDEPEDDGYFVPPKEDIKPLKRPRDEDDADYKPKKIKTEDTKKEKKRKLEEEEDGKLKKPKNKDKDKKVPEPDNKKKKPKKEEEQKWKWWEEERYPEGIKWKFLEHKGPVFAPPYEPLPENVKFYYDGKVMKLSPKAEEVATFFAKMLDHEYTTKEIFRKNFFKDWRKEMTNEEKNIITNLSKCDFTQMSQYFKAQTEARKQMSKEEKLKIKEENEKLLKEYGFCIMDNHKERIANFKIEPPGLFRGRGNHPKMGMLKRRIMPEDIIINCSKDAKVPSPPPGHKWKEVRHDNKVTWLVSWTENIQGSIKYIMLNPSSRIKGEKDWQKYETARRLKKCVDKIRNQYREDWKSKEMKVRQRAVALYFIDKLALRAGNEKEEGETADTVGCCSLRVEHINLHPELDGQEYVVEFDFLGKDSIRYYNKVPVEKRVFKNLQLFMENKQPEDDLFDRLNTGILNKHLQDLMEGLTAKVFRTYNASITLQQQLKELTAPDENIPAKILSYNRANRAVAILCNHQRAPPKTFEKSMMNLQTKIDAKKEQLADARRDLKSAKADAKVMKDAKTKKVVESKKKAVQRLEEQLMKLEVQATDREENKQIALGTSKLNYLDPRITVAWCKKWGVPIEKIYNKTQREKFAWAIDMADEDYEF

[8] = molecular target: ribonucleoprotein (RNP); assay: AtheNA Multi-Lyte ANA, Ab at 12.5 ug/ml;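 also: monoclonal antibodies screened for binding to a panel of nuclear autoantigens (SSA, SSB, Sm, RNP, Scl-70, Jo-1, dsDNA, CentB, histones), with anti-HIV and anti-RSV antibodies as controls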
[9] = molecular target: T4, Sm (sphingomyelin); assay: AtheNA Multi-Lyte ANA, Ab at 12.5 ug/ml;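 also: monoclonal antibodies screened for binding to a panel of nuclear autoantigens (SSA, SSB, Sm, RNP, Scl-70, Jo-1, dsDNA, CentB, histones), with anti-HIV and anti-RSV antibodies as controls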
[10] = molecular target: systemic lupus erythematosus autoantigen SSA; assay: AtheNA Multi-Lyte ANA, Ab at 12.5 ug/ml;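 also: monoclonal antibodies screened for binding to a panel of nuclear autoantigens (SSA, SSB, Sm, RNP, Scl-70, Jo-1, dsDNA, CentB, histones), with anti-HIV and anti-RSV antibodies as controls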
[11] = molecular target: T5, sclerosis autoantigen (Scl-70); assay: AtheNA Multi-Lyte ANA, Ab at 12.5 ug/ml;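 also: monoclonal antibodies screened for binding to a panel of nuclear autoantigens (SSA, SSB, Sm, RNP, Scl-70, Jo-1, dsDNA, CentB, histones), with anti-HIV and anti-RSV antibodies as controls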
[12] = molecular target: ribonucleoprotein (RNP); assay: AtheNA Multi-Lyte ANA, Ab at 50 ug/ml;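 also: monoclonal antibodies probed against a nuclear autoantigen panel (SSA, SSB, Sm, RNP, Scl-70, Jo-1, dsDNA, CentB, histones), with anti-HIV 4E10 and palivizumab as control antibodies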
[13] = molecular target: T4, Sm (sphingomyelin); assay: AtheNA Multi-Lyte ANA, Ab at 50 ug/ml;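 also: monoclonal antibodies probed against a nuclear autoantigen panel (SSA, SSB, Sm, RNP, Scl-70, Jo-1, dsDNA, CentB, histones), with anti-HIV 4E10 and palivizumab as control antibodies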
[14] = molecular target: systemic lupus erythematosus autoantigen SSA; assay: AtheNA Multi-Lyte ANA, Ab at 50 ug/ml;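 also: monoclonal antibodies probed against a nuclear autoantigen panel (SSA, SSB, Sm, RNP, Scl-70, Jo-1, dsDNA, CentB, histones), with anti-HIV 4E10 and palivizumab as control antibodies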
[15] = molecular target: T5, sclerosis autoantigen (Scl-70); assay: AtheNA Multi-Lyte ANA, Ab at 50 ug/ml;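 also: monoclonal antibodies probed against a nuclear autoantigen panel (SSA, SSB, Sm, RNP, Scl-70, Jo-1, dsDNA, CentB, histones), with anti-HIV 4E10 and palivizumab as control antibodies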
[16] = molecular target: T6, GPPPPIDNGDITSFP(GGGK-biotin); assay: ELISA: biotinylated peptide captured on immobilized Neutravidin, antibody at 0.5 µg/ml, anti-human IgG-HRP/ABTS, OD 405 nm
T6 construct: also called biotinylated 15-mer peptide; biotinylated 19-mer
T6 peptide: GPPPPIDNGDITSFPGGGK(Biotin)

[17] = molecular target: ribonucleoprotein (RNP); assay: AtheNA Multi-Lyte ANA, Ab at 6.25 ug/ml;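 also: monoclonal antibodies screened for reactivity against a panel of nuclear autoantigens, with an anti-HIV and an anti-RSV monoclonal antibody serving as controls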
[18] = molecular target: T4, Sm (sphingomyelin); assay: AtheNA Multi-Lyte ANA, Ab at 6.25 ug/ml;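 also: monoclonal antibodies screened for reactivity against a panel of nuclear autoantigens, with an anti-HIV and an anti-RSV monoclonal antibody serving as controls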
[19] = molecular target: systemic lupus erythematosus autoantigen SSA; assay: AtheNA Multi-Lyte ANA, Ab at 6.25 ug/ml;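 also: monoclonal antibodies screened for reactivity against a panel of nuclear autoantigens, with an anti-HIV and an anti-RSV monoclonal antibody serving as controls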
[20] = molecular target: T5, sclerosis autoantigen (Scl-70); assay: AtheNA Multi-Lyte ANA, Ab at 6.25 ug/ml;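 also: monoclonal antibodies screened for reactivity against a panel of nuclear autoantigens, with an anti-HIV and an anti-RSV monoclonal antibody serving as controls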

T1 sequence (P08603 19-1231 limits assumed): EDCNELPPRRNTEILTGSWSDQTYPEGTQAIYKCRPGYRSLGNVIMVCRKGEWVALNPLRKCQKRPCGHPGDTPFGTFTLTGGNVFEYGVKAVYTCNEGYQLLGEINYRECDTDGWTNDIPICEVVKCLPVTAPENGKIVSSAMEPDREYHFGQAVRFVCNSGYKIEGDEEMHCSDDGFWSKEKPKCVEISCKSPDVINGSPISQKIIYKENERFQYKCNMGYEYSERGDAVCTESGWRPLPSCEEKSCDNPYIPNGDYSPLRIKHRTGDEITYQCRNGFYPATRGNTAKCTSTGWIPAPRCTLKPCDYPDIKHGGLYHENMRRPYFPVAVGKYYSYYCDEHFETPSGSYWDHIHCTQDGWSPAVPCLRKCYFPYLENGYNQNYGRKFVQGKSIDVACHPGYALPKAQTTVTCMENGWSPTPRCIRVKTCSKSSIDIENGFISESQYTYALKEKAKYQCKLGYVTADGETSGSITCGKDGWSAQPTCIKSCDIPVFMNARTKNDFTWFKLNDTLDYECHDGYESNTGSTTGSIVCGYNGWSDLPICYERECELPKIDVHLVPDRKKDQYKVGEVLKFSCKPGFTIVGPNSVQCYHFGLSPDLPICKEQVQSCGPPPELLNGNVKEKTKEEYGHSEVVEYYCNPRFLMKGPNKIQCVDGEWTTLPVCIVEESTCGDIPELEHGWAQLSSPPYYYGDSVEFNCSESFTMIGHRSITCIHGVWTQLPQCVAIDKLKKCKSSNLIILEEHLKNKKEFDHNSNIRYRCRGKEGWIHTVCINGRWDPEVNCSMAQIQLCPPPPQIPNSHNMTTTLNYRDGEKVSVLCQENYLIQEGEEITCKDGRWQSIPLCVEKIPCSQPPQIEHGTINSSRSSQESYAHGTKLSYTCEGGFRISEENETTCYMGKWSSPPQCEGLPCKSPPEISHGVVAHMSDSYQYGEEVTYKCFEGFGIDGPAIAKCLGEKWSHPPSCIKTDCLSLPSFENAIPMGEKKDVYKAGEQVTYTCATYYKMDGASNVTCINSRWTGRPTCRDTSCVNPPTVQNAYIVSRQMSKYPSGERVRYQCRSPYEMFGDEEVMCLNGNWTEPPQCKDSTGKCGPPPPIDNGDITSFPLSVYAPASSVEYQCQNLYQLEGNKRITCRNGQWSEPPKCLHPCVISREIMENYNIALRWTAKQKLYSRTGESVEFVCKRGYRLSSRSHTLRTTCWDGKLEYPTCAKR
T2 sequence (P08603 19-1231 limits assumed): as above

B1: Ab7961/293i (antibody, IgG1, V domains shown)
VH: LVESGGGVVQPGKSLRLSCVASGFTFSSYGMHWVRQAPGKGLEWVAVMSFDGKTKYYADSVKGRFTISRDNPKNTLYLQMNSLRSEDTAVYYCAKGGAAAAVFDSWGQGILLTVSS
VL: MTQSPNSLAVSLGGRATINCKTSQSILYRSNNKNYLAWYQHKSGQPPKLLIYWASTRESGVPDRFSGSGSRTDFTLTISGLQAEDVAVYYCQQYYNPPWTFGQGTKVEIK
notes: Recombinant human antibody with IgG1 heavy chain backbone and kappa light chain constant; they begin at LVESGGG and MTQSP; also called mAb 7961; clone 24
- binding result [1]: binds
- binding result [2]: binds
- EC50 [3]: 0.0144 µg/mL
- AtheNA signal [4]: 8
- AtheNA signal [5]: 5
- AtheNA signal [6]: 31
- AtheNA signal [7]: 3
- AtheNA signal [8]: 6
- AtheNA signal [9]: 5
- AtheNA signal [10]: 24
- AtheNA signal [11]: 3
- AtheNA signal [12]: 8
- AtheNA signal [13]: 6
- AtheNA signal [14]: 40
- AtheNA signal [15]: 3
- binding result [16]: binds
- AtheNA signal [17]: 7
- AtheNA signal [18]: 4
- AtheNA signal [19]: 18
- AtheNA signal [20]: 2

B2: 7965/6000 (antibody, V domains shown)
VH: B1 VH
VL: B1 VL
notes: also called clone 12; H007965/K006000
- binding result [16]: binds

B3: 7967/6002 (antibody, V domains shown)
VH: B1 VH with T25S, S28T, Q108P
VL: B1 VL with T22A, S43A, D63E, S79N
notes: also called clone 8; H007967/K006002
- binding result [16]: binds

B4: 7958/5992 (antibody, V domains shown)
VH: LVESGGGVVPPGKSLRLSCAASGFTFSLYGIHWVRQAPGKGLEWVAVISYDGNTKYYTDSVKGRFTISRDNAKNTIYLQMNSLRLDDTAVYYCAKGAANSATFDFWGRGTMVTVSS
VL: MTQSPDSLTLSLGERATINCRSSRTVLYRSNNKNYLAWYQHKPGQPPKLLMSWASTRETGVPDRFSGSGSGTHFTLTITSLQPEDVAVYYCQQYYSPPWTFGQGTKVEIR
notes: also called clone 4; H007958/K005992
- binding result [16]: binds

B7: Ab7955 (antibody, V domains shown)
VH: LVESGGGVVRPGRSLRLSCVASGFTFNAYGMHWVRQGPGKGLEWLAVISYEGKTVYYADSVKDRFTISRDNSRNTVSLHLNNLRGEDTAVYYCAKGSASAAVLQHWGQGTLVSVTS
VL: MTQSPGSLAVSLGSRATINCKSSRSLLYRSNNKNYLAWYQQKPGQSPRLLIYWASSRESGVPDRFSGGGSGTSFTLTISSLQAEDVAVYYCQQYFNPPWTFGQGTKVEIK
notes: Recombinant human antibody with IgG1 heavy chain backbone and kappa light chain constant; also called mAb 7955; clone 19
- EC50 [3]: 0.00648 µg/mL
- AtheNA signal [8]: 8
- AtheNA signal [9]: 7
- AtheNA signal [10]: 56
- AtheNA signal [12]: 13
- AtheNA signal [13]: 10
- AtheNA signal [14]: 92
- binding result [16]: binds
- AtheNA signal [17]: 4
- AtheNA signal [18]: 5
- AtheNA signal [19]: 32

More lines, now with the values ahead:

- binding result [16]: binds
B5: 7982/6018 (antibody, V domains shown)
VH: B4 VH
VL: B4 VL
notes: also called clone 6; H007982/K006018

- binding result [16]: binds
B6: 7963/5998 (antibody, V domains shown)
VH: B4 VH
VL: B4 VL
notes: also called clone 5; H007963/K005998

- binding result [16]: binds
B8: 7983/6019 (antibody, V domains shown)
VH: EVQLVESGGGVVQPGRSLRLSCAASGFTFNRFGMHWVRQRQVPGKGLEWVAVISYDDNTKYYADSVKGRFTISRDNNKSTLYLQMSSLRVEDTAVYFCAKGSTAAAVLDYWGQGTLVTVSS
VL: DIVMTQSPDSLTLSLGERATINCKSSQSLFYRSNNKSYLAWYQQKPGQPPKLLIYWASVRESGVPDRFTGSGSVTDFTLTISSLRAEDVAVYYCQQYFTTPLTFGGGTKVAIK
notes: also called clone 15; H007983/K006019

- binding result [16]: binds
B9: 7971/6005 (antibody, V domains shown)
VH: LVESGGGVVQPGRSLRLSCAASGFTFSRYGMHWVRQAPGKGLEWVAVMSYDGSTKYYADSVKGRFAISRDNPKNTLFLQMNSLRPDDTAVYYCAKGGAAAAVMDVWGKGTTVTVSS
VL: MTQSPDSLTVSLGERATISCKSSQRLLYSSNNKNYLAWYQQKPGQPPKLLMYWASTRESGVPDRFSGSGSGTDFSLTISSLQAEDVAVYYCQQYYNPPWTFGQGTKVEVK
notes: also called clone 14; H007971/K006005

- binding result [1]: binds
- binding result [2]: binds
- EC50 [3]: 0.0152 µg/mL
- AtheNA signal [4]: 56
- AtheNA signal [5]: 96
- AtheNA signal [6]: 168
- AtheNA signal [8]: 51
- AtheNA signal [9]: 67
- AtheNA signal [10]: 132
- AtheNA signal [12]: 62
- AtheNA signal [13]: 137
- AtheNA signal [14]: 162
- binding result [16]: binds
- AtheNA signal [17]: 44
- AtheNA signal [18]: 47
- AtheNA signal [19]: 101
B10: Ab7964 (antibody, IgG1, V domains shown)
VH: LVESGGGVVQPGRSLRLSCAASGVTFSRYGMHWVRQAPGKGLEWVAVISYDEKTKYYADSVKGRFTISRDNSKNTLFLHMNRLRYEDTAVYYCAKGASSGAYFDYWGQGTLVTVSS
VL: not shown
notes: Recombinant human antibody with IgG1 heavy chain backbone and kappa light chain constant; they begin at LVESGGG and MTQSP; also called Ab7964/293i; mAb 7964
